Assay results taken from patent US20210363526A1, “Use of Non-Coding Nucleic Acid for Crop Improvement and Protection Against Microbes” (University of Kentucky Research Foundation, priority 2020, published 2021).
Entries after “also recorded” stand apart in the source; their conditions may differ.

Experiments:
[1] = system: Pseudomonas syringae DC 3000; assay: SAR (systemic acquired resistance) assay: local treatment, distal leaves challenged with virulent pathogen; format: in vivo, Arabidopsis; conditions: for SAR in ago1 plants: localized application to ago1 plants; for SAR in ago1 plants / SAR in ago7 plants / SAR in tas3a mutant plants: SA 500 μM, Pip 1000 μM, G3P 100 μM, DC3000 48 h later; for SAR in ago7 plants: localized application to ago7 plants; for SAR in tas3a mutant plants: localized application to tas3a plants, AzA 1000 μM
Method: Pathogen infection and collection of phloem exudate—Inoculations with Pseudomonas syringae DC 3000 were conducted as described before. The bacterial cultures were grown overnight in King's B medium containing rifampicin and/or kanamycin. For analysis of SAR, the primary leaves were inoculated with MgCl2 or the avr bacteria (10^7 cfu ml^−1) and, 48 h later, the systemic leaves were inoculated with vir bacteria (10^5 cfu m1^−1). Unless noted otherwise, samples from the systemic leaves were harvested at 3 dpi. Petiole exudates were collected in diethyl pyrocarbonate (DEPC) treated water as described earlier. […] PEX RNA was extracted using the TRIzol reagent, quantified using nanodrop and cDNA synthesized from PEX RNA was evaluated for contamination with leaf RNA by assaying for amplification of Rubisco genes. Each sample was run in triplicates and UBC9 expression levels were used as internal control for normalization. Cycle threshold values were calculated by SDS 2.3 software.
Chemical and RNA treatments—SA, G3P, AzA, and Pip treatments were carried out by using 500 μM, 100 μM, 1000 μM, and 1000 μM solutions, respectively. TAS3a RNA was suspended at a concentration of 0.0075-75 ng/μ1 of DEPC water and ˜40 μl was infiltrated per leaf. AzA was prepared in methanol and diluted in water. SA, G3P and Pip were prepared and diluted in water. All dilutions were freshly prepared prior to performing biological experiments.
Statistics and reproducibility—For pathogen assays, ˜16 plants/ genotype/treatment were analyzed in a single experiment. At least 3-4 technical replicates/genotype/treatment were plated. For metabolite quantification, ˜12 plants/genotype/treatment were analyzed in each experiment. Unless otherwise mentioned error bars indicate SD.

[2] = system: auxin responsive factor (ARF) 3; assay: Real-time quantitative RT-PCR of ARF3 expression after TAS3a transcript application; format: in vivo, Arabidopsis; conditions: Col-0 plants, exogenous application, 24 h
From the text: FIGS. 9A-H show images and graphs illustrating that TAS3a RNA contains two overlapping open reading frames. (A) Nucleotide sequence of mature TAS3a RNA (SEQ ID NO: 1). Region shaded in purple and gray indicates overlapping open reading frames. Nucleotides shaded in yellow are miR390-AGO7 targeting sites on TAS3a transcript. Arrows indicate position of forward and reverse primers used for quantitative RT-PCR. Residues in red indicate alternate polyadenylation sites. (B) Real-time quantitative RT-PCR showing relative expression levels of ARF3 in Col-0 plants treated with buffer or Tas3a555 for 24 h. The error bars indicate SD (n=4). Results are representative of two independent experiments. Asterisks denote a significant difference (t test, P<0.0001). […] Fresh protoplasts (10^6/ml) were incubated with 2 μM ^32P-TAS3a555 for 1 h, analyzed microscopically before and after four washes and quantified for the amount of radiolabel. […]
RNA extraction, quantitative real-time PCR, and in vitro transcription—Small-scale extraction of RNA from two or three leaves (per sample) was performed with the TRIzol reagent (Invitrogen, CA), following the manufacturer's instructions. RNA quality and concentration were determined by gel electrophoresis and determination of A260. […] Quantitative RT-PCR was carried out as described before. […] Cycle threshold values were calculated by SDS 2.3 software.

isolated protoplasts = assay: Uptake assay of 32P-TAS3a555 into isolated protoplasts; format: cell-based, Arabidopsis; conditions: protoplasts incubated with 2 μM 32P-TAS3a555 for 1 h
From the text: FIGS. 9A-H show images and graphs illustrating that TAS3a RNA contains two overlapping open reading frames. (A) Nucleotide sequence of mature TAS3a RNA (SEQ ID NO: 1). Region shaded in purple and gray indicates overlapping open reading frames. Nucleotides shaded in yellow are miR390-AGO7 targeting sites on TAS3a transcript. Arrows indicate position of forward and reverse primers used for quantitative RT-PCR. Residues in red indicate alternate polyadenylation sites. (B) Real-time quantitative RT-PCR showing relative expression levels of ARF3 in Col-0 plants treated with buffer or Tas3a555 for 24 h. The error bars indicate SD (n=4). Results are representative of two independent experiments. Asterisks denote a significant difference (t test, P<0.0001). (C) Uptake assays showing percentage of ^32P-TAS3a555 transported into isolated protoplasts. Fresh protoplasts (10^6/ml) were incubated with 2 μM ^32P-TAS3a555 for 1 h, analyzed microscopically before and after four washes and quantified for the amount of radiolabel. The experiment was repeated three times with similar results. (D) RNA gel electrophoresis of in vitro synthesized TAS3a transcripts used in this study. (E) Typical morphological phenotypes of DC3000 inoculated distal leaves of Col-0 and tas3a plants. […]

SA = SA quantification after localized TAS3a application; format: in vivo, Arabidopsis; conditions: Col-0, localized application
Pip = Pip quantification after localized TAS3a application; format: in vivo, Arabidopsis; conditions: Col-0, localized application
ROS = ROS (H2O2, DAB staining) after localized TAS3a application; format: in vivo, Arabidopsis; conditions: Col-0, localized application
Method: FIGS. 12A-D show graphs and images illustrating that exogenous application of TAS3a induces G3P but not SA, Pip, or ROS. (A) SA (left panel) and SAG (right panel) levels in Col-0 plants infiltrated with MgCl2, avrRpt2 or TAS3a transcripts. Leaf samples were collected 24 and 48 h post treatments. The error bars indicate SD (n=4). Asterisks denote a significant difference with respective mock-inoculated samples (t test, P<0.0001). (B) Pip levels in local tissues of Col-0 plants infiltrated with MgCl2 (mock), avrRpt2 or TAS3a transcripts. The leaves were sampled 48 h post treatments. Asterisks denote a significant difference with mock (t test, P<0.0001). The experiment was repeated two times with similar results. (C) H2O2 levels in local tissues of Col-0 plants after mock (MgCl2), pathogen (avrRpt2) or TAS3a treatments. The leaves were sampled 24 h post treatments and stained with DAB (3,3-diaminobenzidine). The experiment was repeated two times with similar results. (D) G3P levels in local tissues of water or 555 bp TAS3a transcript treated Col-0 plants. The leaves were sampled 24 h post treatments and the experiment was repeated two times with similar results. Asterisks denote a significant difference with respective mock-inoculated samples (t test, P<0.001).

G3P = G3P quantification after localized TAS3a application; format: in vivo, Arabidopsis; conditions: Col-0, localized application, 24 h

Molecule: O=C(O)C1CCCCN1 (stereo not drawn) [Pip, pipecolic acid]
- SAR in ago1 plants [1]: unable to restore SAR
- SAR in ago7 plants [1]: unable to restore SAR
- SAR in tas3a mutant plants [1]: did not restore SAR

Molecule: O=C(O)c1ccccc1O [SA, salicylic acid]
- SAR in ago1 plants [1]: unable to restore SAR
- SAR in ago7 plants [1]: unable to restore SAR
- SAR in tas3a mutant plants [1]: did not restore SAR

Molecule: O=P(O)(O)OCC(O)CO (stereo not drawn) [G3P, glycerol-3-phosphate]
- SAR in ago1 plants [1]: unable to restore SAR
- SAR in ago7 plants [1]: unable to restore SAR
- SAR in tas3a mutant plants [1]: did not restore SAR

Molecule: O=C(O)CCCCCCCC(=O)O [AzA, azelaic acid]
- SAR in tas3a mutant plants [1]: did not restore SAR

B1: TAS3a transcript: exogenously applied in vitro transcribed TAS3a RNA, length not stated at the place (figure legends: 555 nt) (nucleic acid, listed as Arabidopsis thaliana)
chain: AUCCCACCGUUUCUUAAGACUCUCUCUCUUUCUGUUUUCUAUUUCUCUCUCUCUCAAAUGAAAGAGAGAGAAGAGCUCCCAUGGAUGAAAUUAGCGAGACCGAAGUUUCUCCAAGGCAUUAAGGAAAACAUAACCUCCGUGAUGCAUAGAGAUUAUUGGAUCCGCUGUGCUGAGACAUUGAGUUUUUCUUCGGCAUUCCAGUUUCAAUGAUAAAGCGGUGUUAUCCUAUCUGAGCUUUUAGUCGGAUUUUUUCUUUUCAAUUAUUGUGUUUUAUCUAGAUGAUGCAUUUCAUUAUUCUCUUUUUCUUGACCUUGUAAGGCCUUUUCUUGACCUUGUAAGACCCCAUCUCUUUCUAAACGUUUUAUUAUUUUCUCGUUUUACAGAUUCUAUUCUAUCUCUUCUCAAUAUAGAAUAGAUAUCUAUCUCUACCUCUAAUUCGUUCGAGUCAUUUUCUCCUACCUUGUCUAUCCCUCCUGAGCUAAUCUCCACAUAUAUCUUUUGUUUGUUAUUGAUGUAUGGUUGACAUAAAUUCAAUAAAGAAGUUGACGUUUUUCU
- SAR induction in wild-type plants ([1]; localized application to wild-type Col-0, virulent DC3000 inoculated on distal leaves 48 h post-local treatment, transcripts 0.039 nmol/ml, Tasi-ARFs 1 μM (figure legends)): confer robust SAR; also recorded: able to induce SAR
- expression of TAS3a target gene ARF3 [2]: suppressed
- uptake in isolated protoplasts (isolated protoplasts): confirmed by uptake
- SA accumulation (SA): did not induce
- SA accumulation (SA; listed as TAS3a): not
- Pip accumulation (Pip): did not induce
- Pip accumulation (Pip; listed as TAS3a): not
- ROS accumulation (ROS): did not induce
- ROS accumulation (ROS; listed as TAS3a): not
- G3P levels (G3P): did increase
- G3P levels (G3P; listed as TAS3a): induces
